Data reported in PMC8282039.

Biological target: CDY14HL-Fc4 (human) (UniProt Q9BYF1)
Assay: SPR

Question: Which Kd does the source give for “SARS-CoV-2 receptor binding domain (RBD), Wuhan (from UniProt P0DTC2 330-530) (domain or fragment)” here?
Answer: 31 pM
